In PMC10258763:

Biological target: modifying region of human fatty acid synthase (hFASN) isolated by TEV cleavage of the engineered full-length protein (human) (UniProt P49327)
Assay: cryo-EM structure; hFASN modifying region after TEV cleavage, 0.8 mg/mL, 1 mM NADPH, 1 mM DTT; also with 13.75 µM Denifanstat; plunge-frozen on holey gold grids, Titan Krios

Sequence of modifying region of human fatty acid synthase (hFASN) isolated by TEV cleavage of the engineered full-length protein (P49327 855-2511, change not shown): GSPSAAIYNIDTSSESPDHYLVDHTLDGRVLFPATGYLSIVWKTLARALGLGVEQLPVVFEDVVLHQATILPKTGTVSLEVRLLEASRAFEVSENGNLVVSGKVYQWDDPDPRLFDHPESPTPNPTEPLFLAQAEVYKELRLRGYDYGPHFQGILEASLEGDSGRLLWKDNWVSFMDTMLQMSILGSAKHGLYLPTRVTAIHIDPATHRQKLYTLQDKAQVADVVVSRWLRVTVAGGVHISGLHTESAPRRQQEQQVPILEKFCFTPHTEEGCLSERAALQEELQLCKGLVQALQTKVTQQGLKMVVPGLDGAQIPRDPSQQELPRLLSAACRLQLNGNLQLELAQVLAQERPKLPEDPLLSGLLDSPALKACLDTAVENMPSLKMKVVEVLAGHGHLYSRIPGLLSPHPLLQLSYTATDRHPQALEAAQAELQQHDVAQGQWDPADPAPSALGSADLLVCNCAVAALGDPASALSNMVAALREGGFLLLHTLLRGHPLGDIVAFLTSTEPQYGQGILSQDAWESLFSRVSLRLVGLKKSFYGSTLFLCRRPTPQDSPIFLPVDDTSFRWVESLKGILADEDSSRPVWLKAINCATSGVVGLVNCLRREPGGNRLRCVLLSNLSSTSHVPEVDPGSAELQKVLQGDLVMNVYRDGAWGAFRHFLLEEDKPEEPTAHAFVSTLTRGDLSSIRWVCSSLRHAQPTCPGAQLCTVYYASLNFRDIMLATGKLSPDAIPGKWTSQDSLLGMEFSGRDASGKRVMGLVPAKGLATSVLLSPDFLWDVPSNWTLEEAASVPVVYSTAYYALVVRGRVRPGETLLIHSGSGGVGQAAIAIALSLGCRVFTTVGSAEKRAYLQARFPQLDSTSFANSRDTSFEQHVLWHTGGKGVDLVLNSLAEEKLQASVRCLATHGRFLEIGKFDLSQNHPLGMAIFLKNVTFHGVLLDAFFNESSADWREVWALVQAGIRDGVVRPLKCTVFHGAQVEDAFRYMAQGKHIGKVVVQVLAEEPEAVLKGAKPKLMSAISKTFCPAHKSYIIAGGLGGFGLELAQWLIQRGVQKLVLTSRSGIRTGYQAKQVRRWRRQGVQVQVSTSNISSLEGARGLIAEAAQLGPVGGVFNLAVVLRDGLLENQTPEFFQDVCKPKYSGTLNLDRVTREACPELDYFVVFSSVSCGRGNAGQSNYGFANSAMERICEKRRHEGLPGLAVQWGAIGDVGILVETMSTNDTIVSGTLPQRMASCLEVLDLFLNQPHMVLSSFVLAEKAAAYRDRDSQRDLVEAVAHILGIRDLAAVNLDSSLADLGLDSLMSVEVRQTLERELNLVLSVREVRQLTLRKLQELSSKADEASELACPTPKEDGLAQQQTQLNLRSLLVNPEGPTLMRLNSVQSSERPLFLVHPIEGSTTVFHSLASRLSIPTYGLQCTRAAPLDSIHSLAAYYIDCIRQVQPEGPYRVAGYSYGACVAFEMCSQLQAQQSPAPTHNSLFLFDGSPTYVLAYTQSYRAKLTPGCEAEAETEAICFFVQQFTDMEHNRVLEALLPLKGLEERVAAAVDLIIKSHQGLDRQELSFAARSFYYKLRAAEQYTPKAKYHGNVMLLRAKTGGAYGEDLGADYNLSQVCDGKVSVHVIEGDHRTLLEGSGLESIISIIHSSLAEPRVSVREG

stoichiometry N: 2
Substance: modifying region of human fatty acid synthase (hFASN) isolated by TEV cleavage of the engineered full-length protein (from UniProt P49327 855-2511) (domain or fragment)
